± gives the uncertainty stated by the source.
B1: Receptor-interacting serine/threonine-protein kinase 2, residues 438 to 518; numbered along this chain, O43353 (parent)
chain: QWIQSKREDIVNQMTEACLNQSLDALLSRDLIMKEDYELVSTKPTRTSKVRQLLDTTDIQGEEFAKVIVQKLKDNKQMGLQ

Variants of: B1
Assay: abundance fitness (aPCA) (normalised: wild type 0, dead -1); higher = more abundant; growth selection in yeast, the domain comes from the species named
Conditions: Homo sapiens

Abundance fitness, by site and new letter:
R29: C -0.403 ± 0.22, V -0.66 ± 0.14, E -0.152 ± 0.12, P -0.433 ± 0.079, M -0.076 ± 0.1, S -0.297 ± 0.07, L 0.01 ± 0.07, K 0.002 ± 0.17, H -0.345 ± 0.17, I -0.88 ± 0.22, Y -0.321 ± 0.14, W -0.575 ± 0.16, G -0.238 ± 0.062, F 0.192 ± 0.27, T -0.438 ± 0.11, Q -0.059 ± 0.091, N -0.044 ± 0.21
L23: E -0.445 ± 0.21, Q -0.424 ± 0.14, V -0.509 ± 0.11, N -0.282 ± 0.23, W -0.911 ± 0.3, M -0.274 ± 0.2, K -0.559 ± 0.3, I -0.918 ± 0.49, T -0.368 ± 0.12, R -0.695 ± 0.079, S -0.616 ± 0.12, F -0.764 ± 0.24, G -0.67 ± 0.11, H -0.174 ± 0.13, A -0.397 ± 0.11
E16: K -0.537 ± 0.14, R -0.793 ± 0.082, V -0.289 ± 0.067, L -0.288 ± 0.072, S -0.272 ± 0.061, Y -0.576 ± 0.15, M -0.186 ± 0.19, Q -0.546 ± 0.12, G -0.858 ± 0.098, D 0.014 ± 0.11, P -0.539 ± 0.078, I -0.319 ± 0.11, T -0.193 ± 0.079, C -0.853 ± 0.23
A25: K -0.732 ± 0.15, Q -0.43 ± 0.096, G -0.451 ± 0.067, T -0.174 ± 0.075, W -0.969 ± 0.17, V -0.133 ± 0.092, I -0.339 ± 0.14, L -0.303 ± 0.063, H -0.225 ± 0.16, P -0.737 ± 0.082, R -0.592 ± 0.063, E 0.183 ± 0.072, S -0.233 ± 0.057, F -0.052 ± 0.16, N -0.343 ± 0.062, D -0.088 ± 0.1
Q21: E -0.096 ± 0.1, T -0.344 ± 0.08, H -0.562 ± 0.13, K -0.338 ± 0.18, M -0.736 ± 0.19, I -0.788 ± 0.1, R -0.286 ± 0.051, N -0.357 ± 0.2, W -1.07 ± 0.2, V -0.382 ± 0.085, A 0.089 ± 0.12, D 0.183 ± 0.11, S -0.141 ± 0.062, Y -0.313 ± 0.22, L -0.319 ± 0.073, G -0.432 ± 0.064, P -0.793 ± 0.1, F -0.776 ± 0.28, C -0.475 ± 0.12
K34: E 0.024 ± 0.11, S -0.23 ± 0.065, V -0.242 ± 0.13, H -0.528 ± 0.17, R -0.124 ± 0.063, D -0.448 ± 0.24, W -0.243 ± 0.092, M -0.312 ± 0.16, G -0.357 ± 0.091, F -0.191 ± 0.17, L -0.079 ± 0.097, T -0.515 ± 0.22, C -0.199 ± 0.22, A -0.094 ± 0.078, P 0.024 ± 0.066
D36: M -0.711 ± 0.22, H -0.194 ± 0.14, E -0.147 ± 0.11, G -0.551 ± 0.1, K -0.545 ± 0.14, C -0.839 ± 0.23, A -0.267 ± 0.11, L -0.791 ± 0.11, N -0.678 ± 0.37
L26: S -0.419 ± 0.069, Q -0.31 ± 0.061, E -0.364 ± 0.11, T -0.657 ± 0.13, F -1.03 ± 0.25, A -0.313 ± 0.059, W -1.02 ± 0.17, V -0.649 ± 0.069, G -0.572 ± 0.081, K -0.374 ± 0.15, D -0.833 ± 0.34, H -0.289 ± 0.18, R -0.425 ± 0.05, P -0.374 ± 0.068, C -0.618 ± 0.11, Y -0.879 ± 0.3, M -0.662 ± 0.13
L31: Y -0.601 ± 0.24, M -0.204 ± 0.13, S -0.608 ± 0.048, A -0.615 ± 0.089, V -0.588 ± 0.13, H -0.448 ± 0.39, D -0.456 ± 0.2, R -0.732 ± 0.087, K -0.574 ± 0.2, I -0.973 ± 0.45, F -0.74 ± 0.18, N -0.782 ± 0.35, P -0.588 ± 0.063, W -0.949 ± 0.16, G -0.798 ± 0.087
I32: F -0.842 ± 0.23, S -0.593 ± 0.078, R -0.592 ± 0.071, V -0.373 ± 0.085, A -0.686 ± 0.11, M -0.183 ± 0.11, W -0.442 ± 0.14, H -0.527 ± 0.13, K -0.94 ± 0.42, L -0.029 ± 0.055, T -0.594 ± 0.12, C -0.679 ± 0.14, G -0.707 ± 0.094, P -0.437 ± 0.071, E -0.731 ± 0.2, Q -0.273 ± 0.14
C18: V -0.004 ± 0.079, L -0.519 ± 0.072, P -0.299 ± 0.074, A -0.151 ± 0.067, Y -0.795 ± 0.22, Q -0.316 ± 0.11, N -0.288 ± 0.16, G -0.425 ± 0.062, T 0.158 ± 0.084, E 0.062 ± 0.095, D -0.796 ± 0.25, H -0.747 ± 0.2, S -0.24 ± 0.061, R -0.559 ± 0.071, F -0.375 ± 0.19, I -0.384 ± 0.12, M -0.264 ± 0.23
N20: G -0.159 ± 0.072, S -0.043 ± 0.11, V -0.274 ± 0.11, F 0.023 ± 0.37, Y 0.112 ± 0.2, T -0.29 ± 0.17, A -0.048 ± 0.21, R -0.106 ± 0.098, E -0.571 ± 0.36, W 0.075 ± 0.11, C -0.564 ± 0.16, P -0.829 ± 0.24, H 0.119 ± 0.38, L -0.102 ± 0.1, K 0.117 ± 0.22, Q -0.091 ± 0.42
A17: V 0.004 ± 0.067, C -0.107 ± 0.074, I -0.569 ± 0.21, P -0.33 ± 0.057, Q 0.076 ± 0.088, D 0.042 ± 0.11, T 0.131 ± 0.083, Y -0.137 ± 0.12, M -0.25 ± 0.16, G -0.175 ± 0.055, W -0.485 ± 0.1, F -0.839 ± 0.16, K -0.072 ± 0.2, S -0.117 ± 0.056, N -0.166 ± 0.17, L -0.186 ± 0.068, H -0.043 ± 0.11, E 0.182 ± 0.11
M33: F -0.555 ± 0.15, S 0.195 ± 0.073, T 0.247 ± 0.095, N -0.132 ± 0.36, P -0.039 ± 0.054, R 0.141 ± 0.053, C 0.115 ± 0.097, W -0.646 ± 0.094, I -0.075 ± 0.12, L 0.059 ± 0.061, Q 0.145 ± 0.11, Y -0.439 ± 0.23, K -0.088 ± 0.17, E 0.067 ± 0.11, A 0.199 ± 0.071
S22: I 0.565 ± 0.49, R -1.05 ± 0.13, C -0.017 ± 0.13, V 0.1 ± 0.069, Q -0.796 ± 0.15, L -0.057 ± 0.072, N -0.71 ± 0.46, G -0.5 ± 0.075, A 0.066 ± 0.051, P -0.621 ± 0.059, D -0.386 ± 0.15, F -0.945 ± 0.39, Y -0.911 ± 0.25
S28: R -0.082 ± 0.062, Y -0.26 ± 0.1, G -0.363 ± 0.064, P -0.847 ± 0.18, K 0.095 ± 0.093, T -0.165 ± 0.12, F -0.665 ± 0.29, I -0.475 ± 0.2, L -0.204 ± 0.065, D -0.36 ± 0.16, W -0.527 ± 0.14, H -0.25 ± 0.12, Q 0.041 ± 0.11, E 0.03 ± 0.14, C -0.283 ± 0.13, M -0.259 ± 0.11, V -0.175 ± 0.089
D24: L -0.569 ± 0.11, Y -0.221 ± 0.22, V -0.434 ± 0.1, W -0.881 ± 0.21, G -0.692 ± 0.1, A -0.106 ± 0.084, S -0.19 ± 0.077, E 0.034 ± 0.33, F -0.779 ± 0.22, R -0.169 ± 0.057, T -0.28 ± 0.045, P -0.68 ± 0.099, K -0.328 ± 0.19, C -0.337 ± 0.15, H -0.574 ± 0.16, M -0.719 ± 0.33
L27: F -0.353 ± 0.19, D -0.198 ± 0.13, C -0.668 ± 0.16, H -0.284 ± 0.18, G -0.609 ± 0.071, N -0.395 ± 0.17, A -0.251 ± 0.088, Q -0.293 ± 0.22, K -0.041 ± 0.13, S -0.104 ± 0.075, M 0.128 ± 0.24, Y -0.069 ± 0.13, R -0.157 ± 0.068, P -0.328 ± 0.07, V -0.067 ± 0.051, T -0.355 ± 0.12
T15: V -0.777 ± 0.11, S 0.158 ± 0.042, W -1.05 ± 0.21, Q -0.126 ± 0.14, P -0.492 ± 0.08, R -0.937 ± 0.11, Y -0.946 ± 0.31
E35: Q -0.233 ± 0.1, G -0.256 ± 0.07, H 0.055 ± 0.17, Y -0.514 ± 0.21, P -0.304 ± 0.096, A -0.223 ± 0.085, M -0.703 ± 0.11, N -0.521 ± 0.17, F -0.693 ± 0.19, R -0.043 ± 0.073, T -0.118 ± 0.12, W -0.252 ± 0.12, D -0.142 ± 0.14, I -1.12 ± 0.47, V -0.408 ± 0.097, K 0.024 ± 0.089
L19: A -0.447 ± 0.1, S -0.792 ± 0.16, V -0.25 ± 0.097, Q -0.351 ± 0.14, F -0.833 ± 0.27, W -1 ± 0.39, M -0.306 ± 0.12, G -0.502 ± 0.088, Y -0.607 ± 0.24, K -0.884 ± 0.34, T -0.112 ± 0.3, P -0.3 ± 0.16, N -0.454 ± 0.34, I 0.024 ± 0.18
D30: N -0.401 ± 0.18, A -0.106 ± 0.072, Y -0.84 ± 0.21, S -0.166 ± 0.087, M -0.814 ± 0.16, Q -0.073 ± 0.077, E -0.03 ± 0.089, G 0.122 ± 0.055, V -0.657 ± 0.12, K 0.06 ± 0.11, P -1.08 ± 0.24, C -0.332 ± 0.15, L -0.615 ± 0.081, R -0.036 ± 0.049, H 0.045 ± 0.11, W -1.12 ± 0.24
